Measurements reported in patent US20240182580A1.

What was measured:
[1] = biological target: CD74 on human tumour cell lines (human) (UniProt P04233); assay: flow cytometry on ARD (MM) cells; Table 3 repeats Table 2
[2] = biological target: CD74 on human tumour cell lines (human) (UniProt P04233); assay: flow cytometry on ARP-1 (MM) cells; Table 3 repeats Table 2
[3] = biological target: CD74 on human tumour cell lines (human) (UniProt P04233); assay: flow cytometry on BDCM (AML) cells; Table 3 repeats Table 2
[4] = biological target: CD74 on human tumour cell lines (human) (UniProt P04233); assay: flow cytometry on JVM-13 (CLL) cells; Table 3 repeats Table 2; design: Bmax: unit not given here
[5] = biological target: CD74 on human tumour cell lines (human) (UniProt P04233); assay: flow cytometry on SUP-B15 (ALL) cells; Table 3 repeats Table 2; design: Bmax: unit not given here
[6] = biological target: CD74 on human tumour cell lines (human) (UniProt P04233); assay: flow cytometry on ARD (MM) cells, one-site specific binding fit
[7] = biological target: CD74 on human tumour cell lines (human) (UniProt P04233); assay: flow cytometry on RPMI-6666 (HL) cells; Table 3 repeats Table 2
[8] = biological target: CD74 on human tumour cell lines (human) (UniProt P04233); assay: flow cytometry on RPMI-8226 (MM) cells; Table 3 repeats Table 2
[9] = biological target: CD74 on human tumour cell lines (human) (UniProt P04233); assay: flow cytometry on SU-DHL-6 (NHL) cells; Table 3 repeats Table 2
[10] = biological target: CD74 on human tumour cell lines (human) (UniProt P04233); assay: flow cytometry on BDCM (AML) cells, one-site specific binding fit
[11] = biological target: CD74 on human tumour cell lines (human) (UniProt P04233); assay: flow cytometry on JVM-13 (CLL) cells, one-site specific binding fit
[12] = biological target: CD74 on human tumour cell lines (human) (UniProt P04233); assay: flow cytometry on SUP-B15 (ALL) cells, one-site specific binding fit
[13] = biological target: CD74 on human tumour cell lines (human) (UniProt P04233); assay: flow cytometry on RPMI-6666 (HL) cells, one-site specific binding fit
[14] = biological target: CD74 on human tumour cell lines (human) (UniProt P04233); assay: flow cytometry on RPMI-8226 (MM) cells, one-site specific binding fit
[15] = biological target: CD74 on human tumour cell lines (human) (UniProt P04233); assay: flow cytometry on SU-DHL-6 (NHL) cells, one-site specific binding fit
[16] = biological target: CD74 on human tumour cell lines (human) (UniProt P04233); assay: flow cytometry on ARD (MM) cells, geometric MFI, one-site specific binding fit
[17] = biological target: CD74 on human tumour cell lines (human) (UniProt P04233); assay: flow cytometry on ARP-1 (MM) cells, geometric MFI, one-site specific binding fit
[18] = biological target: CD74 on human tumour cell lines (human) (UniProt P04233); assay: flow cytometry on BDCM (AML) cells, geometric MFI, one-site specific binding fit
[19] = biological target: CD74 on human tumour cell lines (human) (UniProt P04233); assay: flow cytometry on JVM-13 (CLL) cells, geometric MFI, one-site specific binding fit
[20] = biological target: CD74 on human tumour cell lines (human) (UniProt P04233); assay: flow cytometry on SUP-B15 (ALL) cells, geometric MFI, one-site specific binding fit
[21] = biological target: CD74 on human tumour cell lines (human) (UniProt P04233); assay: flow cytometry on RPMI-6666 (HL) cells, geometric MFI, one-site specific binding fit
[22] = biological target: CD74 on human tumour cell lines (human) (UniProt P04233); assay: flow cytometry on RPMI-8226 (MM) cells, geometric MFI, one-site specific binding fit
[23] = biological target: CD74 on human tumour cell lines (human) (UniProt P04233); assay: flow cytometry on SU-DHL-6 (NHL) cells, geometric MFI, one-site specific binding fit

B1: anti-CD74 antibody without conjugation (anti-CD74 IgG of Examples 2 and 3) (antibody, V domains shown)
VH: QVQLVESGGGVVQPGRSLRLSCAASGFNFSDYGMHWVRQAPGKGLEWVAVIWYDGSISYYADSVKGRFTISRDNSKNTLYLQMNSLRAEDTAVYYCARGGTVEHGAVYGTDVWGQGTTVTVSS
VL: DIQMTQSPSSVSASVGDRVTITCRASQGIGSWLAWYQQKPGKAPKLLIYAADRLQSGVPSRFSGSGSGTDFTLTISSLQPEDFATYYCQQYHTYPLTFGGGTKVEIK
For B1, the Bmax [1] was 190, the Kd [1] was 2.6 nM and the Bmax [2] was 341. It also gave a Bmax [3] of 3060, a Kd [3] of 4.5 nM and a Bmax [4] of 447. It also gave a Kd [4] of 2.5 nM, a Bmax [5] of 680 and a Kd [5] of 3.5 nM. For the same binder, the Kd [6] was 2.6 nM, the Bmax [7] was 3880 and the Kd [7] was 2.3 nM. The Bmax [8] was 119, the Kd [8] was 3.6 nM and the Bmax [9] was 1560. The Kd [9] was 2 nM, the Kd [10] was 4.5 nM and the Kd [11] was 2.5 nM. The Kd [12] was 3.5 nM, the Kd [13] was 2.3 nM and the Kd [14] was 3.6 nM. For the same binder, the Kd [15] was 2 nM, the Bmax [16] was 190 and the Bmax [17] was 341. It also gave a Bmax [18] of 3060, a Bmax [19] of 447 and a Bmax [20] of 680. It also gave a Bmax [21] of 3880, a Bmax [22] of 119 and a Bmax [23] of 1560.
